According to the RNAGym collection of RNA variant scans (doi:10.7554/elife.80360):

B1: Hairpin Ribozyme (parent)
chain: GUCCUCUUUCACGUGCGCGUGAAAGAGAGAAGUGAACCAGAGAAACACACGUUGUGGUAUAUUACCUGGUA

Variants of: B1
Assay: self-cleavage, relative activity (ratio to wild type); higher = more cleavage; co-transcriptional

| Variant | self-cleavage |
| --- | --- |
| A22U A30U | 0.262 |
| A22U U58C | 1.04 |
| A23C G56C | 0.191 |
| A23C A64C | 0.0802 |
| A23C A64U | 0.118 |
| A22G G27U | 0.262 |
| A22U G51A | 0.811 |
| A22G U70C | 0.57 |
| A23G A45G | 0.175 |
| A23G A45U | 0.143 |
| A23G A45C | 0.0971 |
| A22U G27C | 0.178 |
| A22U G27A | 0.283 |
| A22U G27U | 0.187 |
| A23C U70G | 0.685 |
| A23C U70A | 0.872 |
| A22U G69C | 0.219 |
| A22U | 0.864 |
| A22G G40U | 0.181 |
| A23G A35G | 0.939 |
| A23C G54U | 0.7 |
| A23C G54A | 0.416 |
| A22U G32U | 0.0918 |
| A22U G32C | 0.123 |

| Variant | self-cleavage |
| --- | --- |
| A23C A71C | 1.16 |
| A23C A71G | 0.936 |
| A22G U52C | 0.791 |
| A22G U52G | 0.692 |
| A22U A24C | 0.71 |
| A22U A24U | 0.554 |
| A23C G40A | 0.342 |
| A23C G40U | 0.175 |
| A23G A49U | 0.227 |
| A23C U62C | 0.206 |
| A22G U60A | 0.949 |
| A23C C46U | 0.0785 |
| A23C A49U | 0.257 |
| A23C A49G | 0.393 |
| A22U A45G | 0.225 |
| A22U A45C | 0.179 |
| A22U A39C | 0.456 |
| A22U A39G | 0.277 |
| A23G C48A | 0.123 |
| A23G C48G | 0.159 |
| A23G A36G | 0.933 |
| A23G A36U | 0.514 |
| A22U A41C | 0.87 |
| A22G G34C | 1.52 |

| Variant | self-cleavage |
| --- | --- |
| A22G G34U | 1.22 |
| A22G G34A | 0.987 |
| A23C A41G | 0.928 |
| A23G A64U | 0.125 |
| A23G A64G | 0.43 |
| A23C G42U | 0.348 |
| A23C G42A | 0.287 |
| A23C G42C | 0.422 |
| A22U A71U | 0.747 |
| A22U A71G | 0.791 |
| A23C A26G | 1.01 |
| A23C A26U | 0.499 |
| A23G A31C | 0.194 |
| A23G C66A | 0.246 |
| A22G U58A | 0.657 |
| A23C G27U | 0.253 |
| A23G A44G | 0.126 |
| A22U C65G | 0.266 |
| A22U C65U | 0.229 |
| A22U C65A | 0.903 |
| A23G A71C | 1.37 |
| A23C G51U | 0.993 |
| A23C G29A | 0.177 |
| A23C G29U | 0.0906 |

| Variant | self-cleavage |
| --- | --- |
| A23G C65A | 0.667 |
| A22U U63G | 0.203 |
| A22U U63C | 0.0646 |
| A23C A47C | 0.417 |
| A23C A47U | 0.0967 |
| A22U A36U | 0.58 |
| A22U U67C | 0.168 |
| A22U U67A | 0.188 |
| A22U U52A | 0.836 |
| A22U A23G | 0.72 |
| A22U A23C | 0.733 |
| A22U U55A | 0.255 |
| A22U U55C | 0.178 |
| A23C U55C | 0.184 |
| A23C A44C | 0.251 |
| A22G G56C | 0.137 |
| A22G G69U | 0.238 |
| A22G G69A | 0.385 |
| A22G G54C | 0.35 |
| A22U U62G | 0.147 |
| A23C A45U | 0.207 |
| A23G A28C | 0.641 |
| A23C C38G | 0.0489 |
| A22U C48G | 0.111 |

| Variant | self-cleavage |
| --- | --- |
| A22U C48U | 0.0855 |
| A23G A30C | 0.115 |
| A23G A30U | 0.181 |
| A23G A59U | 0.0772 |
| A22U A59U | 0.143 |
| A22U A47G | 0.115 |
| A23G A61G | 0.136 |
| A23G A61C | 0.266 |
| A22U G42U | 0.369 |
| A23C G69U | 0.297 |
| A23C G68U | 0.262 |
| A23C G68C | 0.138 |
| A22U G25A | 0.149 |
| A22U G25C | 0.143 |
| A22G U62C | 0.276 |
| A23C A30G | 0.184 |
| A23C A30U | 0.118 |
| A22U A44U | 0.173 |
| A22U A49G | 0.488 |
| A22U A49C | 0.146 |
| A23C A39C | 0.517 |
| A23C U60A | 0.744 |
| A23C U60C | 0.921 |
| A22U U60A | 0.77 |

| Variant | self-cleavage |
| --- | --- |
| A22U A26C | 0.479 |
| A22U A26U | 0.907 |
| A22U C46A | 0.187 |
| A22G U55G | 0.33 |
| A22G G51A | 1.05 |
| A22G G51U | 0.957 |
| A22U G29U | 0.071 |
| A22U G29C | 0.214 |
| A23G C46U | 0.0862 |
| A23C A61U | 0.204 |
| A23C A61G | 0.161 |
| A22U A35U | 0.611 |
| A22U A35C | 0.762 |
| A22U A35G | 0.84 |
| A23C G32U | 0.15 |
| A23C G32C | 0.0217 |
| A23C G32A | 0.102 |
| A23G C50A | 0.218 |
| A23C C37U | 0.444 |
| A23G C38U | 0.43 |
| A23G C38A | 0.239 |
| A22U G40C | 0.122 |
| A23C U58C | 0.821 |
| A23C U58A | 0.49 |

| Variant | self-cleavage |
| --- | --- |
| A22U G34C | 0.996 |
| A22U G34U | 1.21 |
| A22U G56C | 0.214 |
| A22U G56U | 0.063 |
| A23C U63C | 0.136 |
| A22U A64C | 0.113 |
| A22U C66G | 0.175 |
| A22U C66A | 0.209 |
| A22G G42A | 0.143 |
| A22G G57C | 0.141 |
| A22U G68C | 0.252 |
| A22U U33G | 0.174 |
| A22U U53C | 0.897 |
| A22U U53A | 0.859 |
| A22G U53G | 0.936 |
| A23G A47G | 0.171 |
| A23G A47U | 0.151 |
| A23G A47C | 0.3 |
| A22U G57C | 0.175 |
| A22U G57A | 0.121 |
| A22G G32U | 0.0605 |
| A22G G32A | 0.0872 |
| A23C A24U | 0.626 |
